This note sets out measurements from publication PMC12607393.

Assay [1] deals with Galactia lindenii Type I lectin (GLL-I) (Galactia lindenii). Briefly: SDS-PAGE of unheated sample; purified GLL-I (15 ug per lane) in SDS without heating, with or without DTT; Coomassie staining.
For assay [2] the target is unchanged. Briefly: SDS-PAGE of heated sample; purified GLL-I (15 ug per lane) in SDS + DTT with heating (reducing conditions); Coomassie staining.

Usually stoichiometry N stands for the number of molecules, sites or subunits per partner or assembly.

Take “Galactia lindenii Type I lectin (GLL-I) (natural protein)”: the figures for the stoichiometry N in assay [1] and in assay [2] were 4 and 2, respectively.
